From patent US6949244 come the findings set out here.

Some results are limits rather than exact numbers.

Test [1] has as its target murine monoclonal anti-HMFG antibody MC-10 (BrE-1). As to the kind of experiment: RIA: 125I-11D10 bound to BrE-1 coated plate, no inhibitor.
The target is the same in test [2]. As to the kind of experiment: RIA: plate coated with 1000 ng 11D10, 125I-BrE-1 bound.
Test [3] has the same target. As to the kind of experiment: competition RIA: 125I-11D10 on BrE-1 coated plate, 0.250 µg unlabeled 11D10.
Test [4] has as its target BrE-3. As to the kind of experiment: RIA: plate coated with 1000 ng 11D10, 125I-BrE-3 bound.
In test [5] the target is BrE-3. As to the kind of experiment: RIA: plate coated with 300 ng 11D10, 125I-BrE-3 bound.
Test [6] has as its target murine monoclonal anti-HMFG antibody MC-10 (BrE-1). As to the kind of experiment: RIA: plate coated with 300 ng 11D10, 125I-BrE-1 bound.
In test [7] the target is BrE-3. As to the kind of experiment: RIA: plate coated with 100 ng 11D10, 125I-BrE-3 bound.
In test [8] the target is murine monoclonal anti-HMFG antibody MC-10 (BrE-1). As to the kind of experiment: RIA: plate coated with 100 ng 11D10, 125I-BrE-1 bound.
Test [9] shares this target. As to the kind of experiment: competition RIA: 250 ng 11D10 mixed with labeled BrE-1, binding to MCF-7 / SKBR3 cell monolayers.

As a reminder, the % inhibition is the change of the read-out against control, counted positive when it falls. Read a low % inhibition as little suppression. With monoclonal anti-idiotype antibody 11D10, the values for the cpm Bound in [1] and in [3] were 37100 cpm and 1850 cpm, respectively. Moreover, the cpm in [2] is 44200 cpm; with BrE-3 [4], 374 cpm; with BrE-3 [5] it was 260 cpm; in [6], 16700 cpm; with BrE-3 [7] it was 263 cpm; in test [8], 6150 cpm. Also, the % inhibition is 95% in test [3] and above 90% in test [9].
